Results published in the nanobody polyreactivity screen of Harvey et al. (2022).

Assay: yeast display, Sf9 membrane polyspecificity reagent, FACS + sequencing; frameworks hold sequencing errors
Procedure, shortened: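 Galactose-induced (36–48 hours) yeast carrying a synthetic nanobody display library were exposed to 10% biotinylated, detergent-solubilized Sf9 membrane reagent at 4 °C for 1 hour. FACS followed streptavidin microbead enrichment, using low and high (top ~1%) gates for expression (anti-HA) and reagent binding (streptavidin). Colony PCR, MiSeq 2 × 250 sequencing and CDR-length filtering followed. Labels for polyreactivity reflect the gate of origin.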

Row | Sequence | polyreactivity (PSR sort gate)
1 | QVQLVESGGGLVQAGGSLRISCAASGRTFSRYAMGWYRQAPGKERELVAAITRGGGGTYYADSVKGRFTISRDNAKNTVYLQMNSLKPEDTAVYYCNRVLLPGPQYQWGKAYDYWGQGTQVTVSS | high polyreactivity
2 | QVQLVESGGGLVQAGGSLRLSCAASGLTFASYAMGWYRQAPGKERDLVARISRSGGSTYYADSVKGRFTISRDNAKNTVYLQMNSLKPEDTAVYYCAADYIFRRYPVGGIYDYDYWGQGTQVTVSS | high polyreactivity
3 | QVQLVESGGGLVQAGGSLRLSCADSGFNFKYYAMGWYRQAPGKERELVATITSRGGSTYYADSVKGRFTISRDNAKNTVYLQMNSLKPEATAVYYCNARSSSPGKYGYWGQGTQVTVSS | high polyreactivity
4 | QVQLVESGGGLVQAGGSLRLSCAASGFTFDFYAMGWYRQAPGKERELVATISYSGASTYYADSVKGRFTISRDNAKNTIYLQLNSLKPEDTAVYYCNAESSYYYGTAAYEYWGQGTQVTVSS | low polyreactivity
5 | QVQLVESGGGLVQAGGSLRLSCAASGRTFPAYAMGWYRQAPGKERELVAAISYSGGRTRYADSVKGRFTISRDNAMNSVYLQMNSLKPEDTAVYFCNRVIPTQSLRDYYWGQGTQVTVSS | high polyreactivity
6 | QVQLVESGGGLVQAGGSLRLSCAASGGTFRYYAMGWYRQAPGKERELVATINWSGGSTYADSVKGRFTISRDNAKNTVYLQMNSLKPEDTAVYYCNAGWWIPVYYWDEWYIYNYWGQGTQVTVSS | high polyreactivity
7 | QVQHVESGGGLLQAGGSLRLSCAASGSIFYVYAMGWYRQAPGKERELVASISCGDSSTYYADSVKGRFTISRDNAKNTVYLQMNILIPEDTAVYYCAADDYRQYALYDYWGQGTHVTVSS | low polyreactivity
8 | QVQLVESGGGLVQAGGSLRLSCAASGSTFAPNAMGWYRQAPGKEREFVATISASGGYTYYADSVKGRFTISRDNAKNTVYLQMNSLKPEDTAVYYCYAVWRVGRQLSQAKIPYDYWGQGTQVTVSS | low polyreactivity
9 | QVQLVESGGGLVQAGGSLRLICAASGSTFASYAMGWYRQAPGKERELVAAITRRGGSTYYADSVKGRFTISRDNAKNTVYLQMNSLKPEDTAVYYCAAKWTPATYKFDYWGQGTQVTVSS | high polyreactivity
10 | QVQLVQSGGGLVQAGGSLRLSCAASGLIFRYYTMGWYRQAPGKERELVAAISSGGSTRYADSVKGRFTISRDNAKNTVYLQMNSLKPEDTAVYYCAAKLYYYVQGRYNYWGQGTQVTVSS | high polyreactivity
11 | QDQLVESGGGLVQAGGSLRLPCAASGYIFFFNAIGWYRQAPGKERELVAAITRRGVSTYYADSVKGRFTISRDNAKNTVYLQMNSLNPEDTAVYYCATDHNHLGYYYWGQGTQVTVSS | low polyreactivity
12 | QVQLVESGGGLVQAGGSLRLSCAASGSTLGRYAMGWYRQAPGKERELVAAISRGGGSTYYADSVKGRFTISRDNAKNTVYLQMNSLKPEYTAVYYCAVGIVHRDSRYYYWGQGTQVTVSS | high polyreactivity
13 | QVQLVESAGGLVQAGGSLRLSCAASGRIFSFNAMGWDRQAPGKERELVATIRTDGTTNYADSVKGRFTISRDNAKNTVYLQMNSLKPEDTAVYYCATDSGWSTYDYWGQGTQVTVSS | high polyreactivity
14 | QVQLVESGGGLVQAGGSLRLSCAASGYTFDYNAMGWYRQAPGKEREFVATITASGDSTYYADSVKGRFTISRDNAKNTVYLQMNSLKPEDTAVYYCATEKRDVYFTAKYDYWGQGTQVTVSS | low polyreactivity
15 | QVQLVEAGGGLVQAGGSLRLSGAASGRTFSLYAMGWYRQAPGKERELVAAITVSGGSTYYADSVKGRFTISRDNAKNTVYLQMNSLKPEDTAVYYCAAEGQPFRYYLLDYWGQGTQVTVSS | low polyreactivity
16 | QVQLVESGEGLVQAGGSLRLSCAASGRTFYANAMGWYRQAPGKERELVASITTSGGTYYADSVKGRFTISRDNAKNTVYLQMNSLKPEDTAVYYCAADVYRSIGYDYWGQGTQVTVSS | low polyreactivity
17 | QVQLVESGGGLVHAGGSLRLSCAASGFTLHQYTMGWYRQAPGKERELVAAISDRGTRTYYADSVKGRFTISRDNAKNTVYLQMNSLKPEDPAVYYCAAYIAGVTGGSGYYYWGKGTQVTVSS | high polyreactivity
18 | QVQLVESGGGLVQAGGSLRLSCAASGSIYRTNAMGWYRQAPGKERELVAAITGSGGSTYYADSVKGRFTISRDNAKNTVYLQMNSLKPEDTAVYYCAAEFGSFVSPYNYYYWGQGTQVTVSS | low polyreactivity
19 | QVQLVESGGGLVQAGGSLRLSCAASGRIFHTYAMGWYRQAPGKEREFVAAIRWSGGSTYYADSVKGRFTISRDNAKNTVYLQMNSLKPEDTAVYYCAREQVRYYSWFGYWGQGTQVTVSS | high polyreactivity
20 | QVQLVESAGGLVQAGGSLRLSCAASGSSLGYYAMGWYRQAPGKERELVADIDNGTSTYYADSVKGRFTISRDNAKNTVYLQMNSLKQEDTAVYYCAADYYSRYLQSYYWGQGTQVTVSS | low polyreactivity
21 | QVQLVESGGGLVQAGGSLRLSCAASGSTFENNVMGWYRQAPGKERELVATITWGDGSTSYADSVKGRFTISRDNAKNTVYLQMNSLKPEDTAVYYCAADDRIGYGKNKDHDYWGQGTQVTVSS | low polyreactivity
22 | QVQLVESGGGLVQAGGTLRLSCAASGSIFGRNTMGWYRQAPGKERELVAAINSGGGTYYADSVKGRFTISRDNAKNTVYLQMNSLKPEDTAVYYCAKASRAVRHGDYWGQRTQVTVSS | low polyreactivity

Row | Sequence | polyreactivity (PSR sort gate)
23 | QVQLVDSGGGLVQAGGSLRLSCAASGSIFKFYTMGWYRQAPGKERQLVAAISSSDGSTHYADSVKGRFTISRDNAKNTVYLQMNSLKPEDTAVYYCARRRYSRYSVTRGNYWGQGTQVTVSS | high polyreactivity
24 | QVQLVESGGGLVQAGGSLRLSCAASGRTFAINAMGGYRQAPGKERELVATIDRSGGSTYYADSVKGRFTISRDNAKNTVYLQMNRLKPEDTAVYYCAADYPVRSYDYWGQGTQVTVSS | low polyreactivity
25 | QVQLVESGGGLVQAGGSLRLSCAASGRIFPYYAMGWYRQAPGKERELVAAITQGGGRTYYADSVKGRFTISRDNAKNTVYLQMNSLKPEDTAVYYCAKRFTIRALLLRWADYDYWGQGTQVTVSS | low polyreactivity
26 | QVQLVESGGGLDQAGGSLRLSCAASVSTFDAYAMVWSTQAPGQERELVAAISSSAASTSYADSVKGRFTISRDNAKNTVYVQMNSLKPEDTAFYYCAARPYRRPWYRGRYYYWGQGTQVTVSS | high polyreactivity
27 | QVQLVESGGGLVQAGGSLRLSCAASGIFAYYAMGWYRQAPGKERELVAAISSSGGSTYYADSVKGRFTISRDNAKNTFYLQMNSLKPEDTAVYYCNVRNYYNDYYYWGQGTQVTVSS | high polyreactivity
28 | QVQLVESGGGLVQAGGSLRLSCAASGRISQSNAMGWYRQAPGKERELVAAISWRGGSTYYADSVKGRFTISRDNAKNTVYLQMNSLKPEDTAVYYCAVRGKYDRHYYWGQGTQVTVSS | high polyreactivity
29 | QVQLVESGGGLVQAGGSLRLSCAASGSIFYDYAMGWYRQAPGKERELVAALTNDDSSTYYADSVKGRFTISRDNAKNTVYLQMNSLKPEDTAVYYCRFKYAVAHQFWVYRYDYWGQGTQVTVSS | low polyreactivity
30 | QVQLVESGGGLVQAGGSLRLSCAASGRTFVYNAMGWYRQAPGKERELVAAITRSGGRTYYADSVKGRFTISRDNAKNTVYLQMNSLKPEDTAVYYCSARISRWYAYGTDIKEGDYWGQGTQVTVSS | low polyreactivity
31 | QVQLVESGGGIVQAGGSLRLSCAASGSISVPYGMGWYRPAPGKERELVAAITGGSTYYADSVKGRFTISRDNAKNTVYLQMNSLIPEDTAVYYCFDVNTDVLSRVYRGWGYYYWGQGTQVTVSS | low polyreactivity
32 | QVQLVESGGGLVQAGGSLRLSCAASGSIFYDYAMGWYRQAPGKERELVADITDDSTNYADSVKGRFTISRDNAKNTVYLQMNSLKPEDTAVYYCAVDWYWGWYWDGGVLTYYYWGQGTQVTVSS | low polyreactivity
33 | QVQLVESGGGLVQAGGSLRLSCAASGRILYAYTMGWYRQAPGKERELVATISRSGGNTYYADSVKGRFTISRDNAKNTVYLQMNSLKPEDTAVYYCAVGKYGTQRVKLYQYRYNYWGQGTQVTVSS | high polyreactivity
34 | QVQLQESGGGLVQAGGSRRLSCAASGTIFTARFMGWYRQATGKERELVSTITDGGNTNHAESVKCRFTISRDNAKNTGSLQMNSLKPEYAAVYYCAAGEVDNDTLLYWGQGSQVTVSS | low polyreactivity
35 | PVQLVVSGGGLVQAGGSLRLRGAASGSSFSQNAMGWSRPAPGKDRELVAAITSGGITYYADSVKGRFTISRDNAKNTVYLQMNSLKPEDTAVYDCAADYWPSGRGVAFDYWGQGTQVTVSS | low polyreactivity
36 | QVQLVESGGGLVQAGGSLRLSCAASGRIFDGYDMGGYRQAPGQEREWVAAITSVGSTNYADSVKGRFTISRDNAKNTVYLQMNSLKPDDTAVYYCAAVLYVFYDDYGYWEYFSQYDYWGQGTQVTVSS | low polyreactivity
37 | QVQLVESGGGLVQAGGSLRLSCDASGSTFRANAMGWYRQAPGKERELVAAISWSGGRTYYADSVKGRFTISRDNAKNTVYLQMNSLKPEYTAVYYCAAPKLTSYDSWGQGTQVTVSS | high polyreactivity
38 | QVQLVESGGGLVQAGGSLRLSCAASGSIFYSYAMGWYRQAPGKERELVAAINSGGRTYYADSVKGRFTISRDNAKNTVYLQMNSLKPEDTAVYYCAARHRWGRAYDYWGQGTQVTVSS | high polyreactivity
39 | QVQLVESGGGLVQAGGSLRLSCAASGFTFRKNAMGWYRQAPGKERELVAAISRRGGRTYYADSVKGRFTISRDNAKNTVYLQMNSLKPEDSAVYYCNDDEYGGSSGRKGRYNYWGQGTQVTVSS | low polyreactivity
40 | QVQLVESGGGLVQAGGSLRLSCAASGRTFVPYAMGWYRQAPGKERELVAAISSGGDTNYADSVKGRFTISRDNAKNTVYLQMNSLKPEDSAVYYCAKDLTQIYYGDDYWGQGTQVTVSS | low polyreactivity
41 | QVQLVESGGCLVQAGGSHRLSCAASGSIFYIYAMGWYRQAPGKERELVASITFSGDITYYAYSVKGRFTISRDNAKNTFYLHMNSLKPEDTAVYYCAADYHEQSYAVTYDYWGQGTQVTVSS | low polyreactivity
42 | QVQLVESGGGLVQAGGSLRLSCAASGRIFVYYTMGWYRQAPGKERELVAAITGSGGSTYYADSVKGRFTISRDNAKNTVYLQMNCLKPEDTAVYYCAARYASTGGGYKYYYWGQGTQVTVSS | high polyreactivity
43 | QVQLVESGGGLVQAGGSLRLSCAASGRIFARKAMGRYRQAPGKEREWVATIRVGGGSTYYADSVKGRFTISRDNAKNTVYLQMNSLKPEDTAVYYFAVRQLYSYPGDRRGYDWGQGTQVTVSS | low polyreactivity
